According to paper PMC11480844 (2024):

B1: H2-Kb / Ed40 (parent complex)
chain 1: GDSVTQTEGPVTVSESESLIINCTYSATSIAYPNLFWYVRYPGEGLQLLLKVITAGQKGSSRGFEATYNKETTSFHLQKASVQESDSAVYYCALGDGYTGNYKYVFGAGTRLKVIA
chain 2: DSGVVQSPRHIIKEKGGRSVLTCIPISGHSNVVWYQQTLGKELKFLIQHYEKVERDKGFLPSRFSVQQFDDYHSEMNMSALELEDSAMYFCASSGASAETLYFGSGTRLTVL
chain 3: not shown
chain 4: IQKTPQIQVYSRHPPENGKPNILNCYVTQFHPPHIEIQMLKNGKKIPKVEMSDMSFSKDWSFYILAHTEFTPTETDTYACRVKHDSMAEPKTVYWDRDM
chain 5: SIINFEKL
B2: H2-Kb / Ed16-30 (parent complex)
chain 1: GEQVEQRPPHLSVREGDSAVIICTYTDPNSYYFFWYKQEPGAGLQLLMKVFSSTEINEGQGFTVLLNKKDKQLSLNLTAAHPGDSAVYFCAVSEPSSGQKLVFGQGTILKVYL
chain 2: EAAVTQSPRNKVAVTGGKVTLSCNQTNNHNNMYWYRQDTGHGLRLIHYSYGAGSTEKGDIPDGYKASRPSQENFSLILELATPSQTSVYFCAGRDTGQLYFGEGSKLTVL
chain 3: not shown
chain 4: B1 chain 4
chain 5: SIINFEKL

Variants of: B1
Assay: % of reporter cells activated (NFAT-GFP), raw
Note: test concentration or dose not given here.

Row | Variant | ratio to parent
1 | chain 5 I2S | 1.1
2 | chain 5 I2G | 0.922
3 | chain 5 F5E | 0.52
4 | chain 5 L8G | 0.595
5 | chain 5 L8T | 0.885
6 | chain 5 E6G | 0.464
7 | chain 5 E6H | 0.172
8 | chain 5 I3Y | 0.762
9 | chain 5 I3T | 0.423
10 | chain 5 I3C | 0.523
11 | chain 5 I3G | 0.319
12 | chain 5 I3V | 0.69
13 | chain 5 K7T | 0.224
14 | chain 5 K7R | 0.622
15 | chain 5 K7L | 0.192
16 | chain 5 N4Y | 0.0157
17 | chain 5 N4T | 0.00333
18 | chain 5 S1G | 1
19 | chain 5 S1Q | 0.681
20 | chain 5 S1W | 0.335
21 | chain 5 S1K | 0.399
22 | chain 5 S1D | 0.892

Variants of: B2
Assay: % of reporter cells activated (NFAT-GFP), raw

Row | Variant | ratio to parent
23 | chain 5 N4K | 0.0853
24 | chain 5 N4A | 0.0158
25 | chain 5 N4E | 0.00872
26 | chain 5 N4S | 0.0223
27 | chain 5 N4V | 0.0105
28 | chain 5 N4P | 0.121
29 | chain 5 N4T | 0.0259
30 | chain 5 N4R | 0.318
31 | chain 5 N4D | 0.9
32 | chain 5 N4M | 0.0762
33 | chain 5 N4C | 0.0363
34 | chain 5 N4F | 0.00803
35 | chain 5 N4L | 0.507
36 | chain 5 N4Q | 0.0901
37 | chain 5 N4H | 0.165
38 | chain 5 N4I | 0.0453
39 | chain 5 N4G | 0.0285
40 | chain 5 N4W | 0.0129
41 | chain 5 L8F | 1.12
42 | chain 5 L8C | 0.731
43 | chain 5 L8A | 1.04
44 | chain 5 L8Q | 1.13
45 | chain 5 L8M | 1.08
46 | chain 5 L8I | 1.19
47 | chain 5 L8S | 1.04
48 | chain 5 L8H | 1.06

Row | Variant | ratio to parent
49 | chain 5 L8G | 0.904
50 | chain 5 L8T | 1.09
51 | chain 5 L8N | 0.798
52 | chain 5 L8R | 1.04
53 | chain 5 L8Y | 1.13
54 | chain 5 L8P | 0.836
55 | chain 5 L8K | 1
56 | chain 5 I2V | 1.33
57 | chain 5 I2D | 1.31
58 | chain 5 I2N | 0.951
59 | chain 5 I2L | 1.33
60 | chain 5 I2H | 0.72
61 | chain 5 I2Y | 0.774
62 | chain 5 I2T | 1.18
63 | chain 5 I2A | 1.2
64 | chain 5 I2S | 1.19
65 | chain 5 I2P | 1.06
66 | chain 5 I2G | 1.25
67 | chain 5 I2M | 1.31
68 | chain 5 I2E | 1.21
69 | chain 5 I2Q | 0.726
70 | chain 5 I2K | 0.978
71 | chain 5 I3T | 0.613
72 | chain 5 I3W | 0.537
73 | chain 5 I3K | 0.779
74 | chain 5 I3A | 0.413

Row | Variant | ratio to parent
75 | chain 5 I3D | 0.562
76 | chain 5 I3H | 0.558
77 | chain 5 I3G | 0.137
78 | chain 5 I3Q | 0.322
79 | chain 5 I3S | 0.393
80 | chain 5 I3Y | 0.607
81 | chain 5 I3M | 0.425
82 | chain 5 I3C | 0.642
83 | chain 5 I3P | 0.64
84 | chain 5 I3V | 1.11
85 | chain 5 I3N | 0.507
86 | chain 5 I3R | 0.104
87 | chain 5 I3F | 0.69
88 | chain 5 F5E | 0.752
89 | chain 5 F5I | 1.11
90 | chain 5 F5Y | 1.14
91 | chain 5 F5K | 1.04
92 | chain 5 F5N | 0.969
93 | chain 5 F5G | 0.976
94 | chain 5 F5M | 1.28
95 | chain 5 F5V | 1.25
96 | chain 5 F5P | 0.769
97 | chain 5 F5Q | 1.25
98 | chain 5 F5C | 1.23
99 | chain 5 F5R | 1.19
100 | chain 5 F5H | 1.21

Row | Variant | ratio to parent
101 | chain 5 F5L | 1.21
102 | chain 5 K7T | 0.716
103 | chain 5 K7P | 0.796
104 | chain 5 K7L | 0.401
105 | chain 5 K7A | 0.499
106 | chain 5 K7V | 0.687
107 | chain 5 K7G | 0.381
108 | chain 5 K7Y | 0.265
109 | chain 5 K7H | 0.478
110 | chain 5 K7D | 0.162
111 | chain 5 K7C | 0.563
112 | chain 5 K7W | 0.74
113 | chain 5 K7S | 0.842
114 | chain 5 K7I | 0.61
115 | chain 5 K7E | 0.0275
116 | chain 5 S1R | 0.184
117 | chain 5 S1A | 0.631
118 | chain 5 S1H | 0.259
119 | chain 5 S1G | 0.485
120 | chain 5 S1N | 0.522
121 | chain 5 S1F | 0.025
122 | chain 5 S1W | 0.128
123 | chain 5 S1Q | 0.323
124 | chain 5 S1D | 0.337
125 | chain 5 S1V | 0.362
126 | chain 5 S1P | 0.0976

Row | Variant | ratio to parent
127 | chain 5 S1C | 0.186
128 | chain 5 S1E | 0.0535
129 | chain 5 S1M | 0.632
130 | chain 5 S1Y | 0.55
131 | chain 5 S1L | 0.313
132 | chain 5 S1K | 0.144
133 | chain 5 S1T | 0.386
134 | chain 5 E6R | 0.363
135 | chain 5 E6N | 0.588
136 | chain 5 E6M | 0.399
137 | chain 5 E6H | 0.488
138 | chain 5 E6Y | 0.308
139 | chain 5 E6T | 0.545
140 | chain 5 E6D | 1.28
141 | chain 5 E6I | 0.00701
142 | chain 5 E6Q | 0.745
143 | chain 5 E6S | 0.609
144 | chain 5 E6A | 0.508
145 | chain 5 E6P | 0.508
146 | chain 5 E6K | 0.503
147 | chain 5 E6L | 0.387
148 | chain 5 E6C | 0.197
149 | chain 5 E6G | 0.543
150 | chain 5 E6F | 0.35
